Publication PMC314469, “Protein Interaction Networks by Proteome Peptide Scanning” (PLoS Biology, 2004)

T1: Boi1 SH3 (BOI1_YEAST), P38041
T1 chain: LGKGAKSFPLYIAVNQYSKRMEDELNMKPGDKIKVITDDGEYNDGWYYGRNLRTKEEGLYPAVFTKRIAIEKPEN

T2: Boi2 SH3 (BOI2_YEAST), P39969
T2 chain: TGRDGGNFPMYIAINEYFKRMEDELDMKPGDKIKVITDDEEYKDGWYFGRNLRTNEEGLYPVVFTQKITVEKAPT

T3: Rvs167 SH3 (RV167_YEAST), P39743
T3 chain: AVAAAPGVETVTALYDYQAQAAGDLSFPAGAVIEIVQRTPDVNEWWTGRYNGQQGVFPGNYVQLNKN

T4: Yfr024 SH3 (LSB3_YEAST), P43603
T4 chain: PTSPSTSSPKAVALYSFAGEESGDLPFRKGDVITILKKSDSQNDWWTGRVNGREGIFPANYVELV

T5: Yhr016c SH3 (YSC84_YEAST), P32793
T5 chain: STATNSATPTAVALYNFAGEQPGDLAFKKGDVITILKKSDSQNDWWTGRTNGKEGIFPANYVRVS


Assays:
Test in all cases: SPOT array
[1] = biological target: T1, Boi1 SH3 (BOI1_YEAST), P38041
[2] = biological target: T2, Boi2 SH3 (BOI2_YEAST), P39969
[3] = biological target: T3, Rvs167 SH3 (RV167_YEAST), P39743
[4] = biological target: T4, Yfr024 SH3 (LSB3_YEAST), P43603
[5] = biological target: T5, Yhr016c SH3 (YSC84_YEAST), P32793

| Binder | normalised SPOT signal, Boehringer light units (BLU); mean over the file's lines of this peptide [1] | normalised SPOT signal, Boehringer light units (BLU); mean over the file's lines of this peptide [2] | normalised SPOT signal, Boehringer light units (BLU); mean over the file's lines of this peptide [3] | normalised SPOT signal, Boehringer light units (BLU); mean over the file's lines of this peptide [4] | normalised SPOT signal, Boehringer light units (BLU); mean over the file's lines of this peptide [5] |
| --- | --- | --- | --- | --- | --- |
| LKRPILPSKNMDHT [YOR191W 344-357] | 133 | 45.2 | 141 | 6130 | 251 |
| LIPPLHPLKKQHPK [YIL089W 44-57] | 10.8 | 17.8 | 35.3 | 1420 | 366 |
| LPAPHRPEKYKERF [YGR154C 67-80] | 89.9 | 35.8 | 28.8 | 1230 | 171 |
| LGAPFSPRRKDKLV [YJL172W 363-376] | 140 | 25.3 | 59.5 | 1510 | 250 |
| LHVPRNPSKSRRGS [YLR310C 161-174] | 153 | 234 | 129 | 1260 | 211 |
| LFGPSFPNKTTVEI [YNL197C 178-191] | 91.9 | 30.3 | 19.9 | 88.8 | 174 |
| LNSPDLPERTKLRN [YDL225W 445-458] | 6110 | 31.1 | 23300 | 35600 | 59600 |
| LLPPTDPFRRKHEQ [YHR148W 63-76] | 56.5 | 15 | 49.4 | 314 | 224 |
| LPLPTLPDRQLFQT [YPL115C 570-583] | 125 | 48.9 | 3860 | 15100 | 6800 |
| LIDPSTPDKAAKKD [YGR083C 353-366] | 24.8 | 19.8 | 28.2 | 0 | 302 |
| LHGPFKPVKSSNGE [YER134C 25-38] | 103 | 77.4 | 107 | 288 | 150 |
